Patent US20260209291A1 (KAMINO, published 2026)
Like-named read-outs stand apart in the source and are kept apart here.

Assays:
myostatin [1] = molecular target: T1, myostatin (Homo sapiens (Human), UniProt O14793 267-375); assay: cell-based or functional assay
T1 sequence: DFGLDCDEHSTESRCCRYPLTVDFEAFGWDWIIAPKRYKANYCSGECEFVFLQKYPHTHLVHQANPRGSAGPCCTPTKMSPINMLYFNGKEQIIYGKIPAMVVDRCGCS

activin A [2] = molecular target: T2, activin A (human, UniProt P08476 311-426); assay: cell-based or functional assay
T2 sequence: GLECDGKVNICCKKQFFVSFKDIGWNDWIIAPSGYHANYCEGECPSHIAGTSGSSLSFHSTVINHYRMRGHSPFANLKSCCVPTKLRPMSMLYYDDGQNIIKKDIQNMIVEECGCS

[3] = molecular target: T3, GDF11 (Growth Differentiation Factor 11) (Homo sapiens (Human), UniProt O95390 299-407); assay: cell-based or functional assay
T3 sequence: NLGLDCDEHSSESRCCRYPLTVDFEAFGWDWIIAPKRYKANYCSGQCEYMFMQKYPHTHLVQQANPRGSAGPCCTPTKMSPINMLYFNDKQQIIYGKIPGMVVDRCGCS

[4] = molecular target: VEGF (Vascular Endothelial Growth Factor) (UniProt P15692-4 27-191); assay: SPR (Biacore 3000, 25 °C): compound captured to about 1,000 RU on a CM5 chip with the mouse antibody capture kit, VEGF injected for 120 s, 300 s dissociation
Protocol: (§1) Surface plasmon resonance (SPR) experiments were carried out on a Biacore 3000 (Cytiva). A CM5 chip for capture of the compounds was prepared according to the instructions of the mouse antibody capture kit (Cytiva, #BR100838). VGFR(½)-mFc-FSD1, TNFR2-mFc-FSD1, VGFR(½)/FST291-mFc, TNFR2/FST291-mFc, VGFR(½)-hFc (Aflibercept), TNFR2-hFc (Etanercept), and FST315dHBS-mFc (SEQ ID NO: 30, SEQ ID NO: 31) were captured to approximately 1,000 RU (Resonance Units). TNFα (R&D Systems, #210-TA-005,) or VEGF (R&D Systems, #293-VE-010) were then injected for 120 s followed by a 300 s dissociation phase. At the end of each binding cycle, non-covalently attached molecules were removed from both surfaces by a 180 s regeneration with 10 mM glycine, pH 1.7. All proteins were diluted in running buffer ([…], pH 7.5, […], 2 mM CaCl₂) and 0.05% Tween 20). A flow rate of 30 μl/min was used in all steps of the experiments. Binding analysis was performed at 25° C., and data were collected at a rate of 1 Hz. Using the BIAevaluation 4.1.1 software (Cytiva), recorded signals were referenced; the signal from the in-line reference flow cell was subtracted as was the signal from a blank run (0 nM analyte).

[5] = molecular target: TNFα (Tumor Necrosis Factor alpha) (UniProt P01375 77-233); assay: SPR (Biacore 3000, 25 °C): compound captured to about 1,000 RU on a CM5 chip with the mouse antibody capture kit, TNFα injected for 120 s, 300 s dissociation
Protocol: as §1

myostatin [6] = molecular target: T1, myostatin; assay: cell-based or functional assay; remark: listed apart in the source
[7] = molecular target: T3, GDF11 (Growth Differentiation Factor 11); assay: cell-based or functional assay; remark: listed apart in the source
activin A [8] = molecular target: T2, activin A; assay: cell-based or functional assay; remark: listed apart in the source
activin A [9] = molecular target: T2, activin A; assay: cell-based or functional assay; remark: listed apart in the source
myostatin [10] = molecular target: T1, myostatin; assay: cell-based or functional assay; remark: listed apart in the source
[11] = molecular target: T3, GDF11 (Growth Differentiation Factor 11); assay: cell-based or functional assay; remark: listed apart in the source
[12] = molecular target: T3, GDF11 (Growth Differentiation Factor 11); assay: cell-based or functional assay; remark: listed apart in the source
myostatin [13] = molecular target: T1, myostatin; assay: cell-based or functional assay; remark: listed apart in the source
activin A [14] = molecular target: T2, activin A; assay: cell-based or functional assay; remark: listed apart in the source

Sequence of VEGF (Vascular Endothelial Growth Factor) (P15692 other isoform, or with tags, fused parts or gaps limits assumed): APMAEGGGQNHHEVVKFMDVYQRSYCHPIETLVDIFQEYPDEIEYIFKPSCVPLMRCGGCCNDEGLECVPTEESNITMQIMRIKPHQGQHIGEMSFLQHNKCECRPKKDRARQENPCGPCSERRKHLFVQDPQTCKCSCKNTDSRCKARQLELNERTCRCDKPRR
Sequence of TNFα (Tumor Necrosis Factor alpha) (P01375 77-233 limits assumed): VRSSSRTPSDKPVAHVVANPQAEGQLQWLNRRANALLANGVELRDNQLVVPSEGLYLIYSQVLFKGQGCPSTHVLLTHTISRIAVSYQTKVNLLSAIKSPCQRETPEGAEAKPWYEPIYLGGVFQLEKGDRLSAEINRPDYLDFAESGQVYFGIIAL

B1: VGFR(½)/FST291-mFc (Fc fusion)
chain 1: GNCWLRQAKNGRCQVLYKTELSKEECCSTGRLSTSWTEEDVNDNTLFKWMIFNGGAPNCIPCKETCENVDCGPGKKCRMNKKNKPRCVCAPDCSNITWKGPVCGLDGKTYRNECALLKARCKEQPELEVQYQGRCKKTCRDVFCPGSSTCVVDQTNNAYCVTCNRICPEPASSEQYLCGNDGVTYSSACHLRKATCLLGRSIGLAYEGKCIKAKSCEDIQCTGGKKCLWDFKVGRGRCSLCDELCPDSKSDEPVCASDNATYASECAMKEAACSSGVLLEVKHSGSCNSISPRGPTIKPCPPCKCPAPNLLGGPSVFIFPPKIKDVLMISLSPIVTCVVVDVSEDDPDVQISWFVNNVEVHTAQTQTHREDYNSTLRVVSALPIQHQDWMSGKEFKCKVNNKDLPAPIERTISKPKGSVRAPQVYVLPPPEEEMTEKQVTLTCMVTDFMPEDIYVEWTNNGKTELNYKNTEPVLDSDGSYFMYSWLRVEKKNWVERNSYSCSVVHEGLHNHHTTKSFSRTPGK
chain 2: SDTGRPFVEMYSEIPEIIHMTEGRELVIPCRVTSPNITVTLKKFPLDTLIPDGKRIIWDSRKGFIISNATYKEIGLLTCEATVNGHLYKTNYLTHRQTNTIIDVVLSPSHGIELSVGEKLVLNCTARTELNVGIDFNWEYPSSKHQHKKLVNRDLKTQSGSEMKKFLSTLTIDGVTRSDQGLYTCAASSGLMTKKNSTFVRVHEKPRGPTIKPCPPCKCPAPNLLGGPSVFIFPPKIKDVLMISLSPIVTCVVVDVSEDDPDVQISWFVNNVEVHTAQTQTHREDYNSTLRVVSALPIQHQDWMSGKEFKCKVNNKDLPAPIERTISKPKGSVRAPRVYVLPPPEEEMTKKQVTLTCMVTDFMPEDIYVEWTNNGKTELNYKNTEPVLVSDGSYTMYSKLRVEKKNWVERNSYSCSVVHEGLHNHHTTKSFSRTPGKLVPRGSHHHHHH
notes: Fc heterodimer (knobs-in-holes, murine IgG2A); also called VGFR(1/2)/FST291-mFc; type 4 design compound
Myostatin [1]
  IC50, neutralisation of 1 ng/mL myostatin (pSmad2/3 luciferase reporter, HEK293 cells) [cont. B]: 1640 pM
Activin A [2]
  IC50, neutralisation of 1 ng/mL activin A (pSmad2/3 luciferase reporter, HEK293 cells) [cont. B]: 584 pM
[3]
  IC50, neutralisation of 1 ng/mL GDF11 (pSmad2/3 luciferase reporter, HEK293 cells) [cont. B]: 3450 pM
[4]
  binding result: binds

B2: TNFR2/FST291-mFc (Fc fusion)
chain 1: GNCWLRQAKNGRCQVLYKTELSKEECCSTGRLSTSWTEEDVNDNTLFKWMIFNGGAPNCIPCKETCENVDCGPGKKCRMNKKNKPRCVCAPDCSNITWKGPVCGLDGKTYRNECALLKARCKEQPELEVQYQGRCKKTCRDVFCPGSSTCVVDQTNNAYCVTCNRICPEPASSEQYLCGNDGVTYSSACHLRKATCLLGRSIGLAYEGKCIKAKSCEDIQCTGGKKCLWDFKVGRGRCSLCDELCPDSKSDEPVCASDNATYASECAMKEAACSSGVLLEVKHSGSCNSISPRGPTIKPCPPCKCPAPNLLGGPSVFIFPPKIKDVLMISLSPIVTCVVVDVSEDDPDVQISWFVNNVEVHTAQTQTHREDYNSTLRVVSALPIQHQDWMSGKEFKCKVNNKDLPAPIERTISKPKGSVRAPQVYVLPPPEEEMTEKQVTLTCMVTDFMPEDIYVEWTNNGKTELNYKNTEPVLDSDGSYFMYSWLRVEKKNWVERNSYSCSVVHEGLHNHHTTKSFSRTPGK
chain 2: LPAQVAFTPYAPEPGSTCRLREYYDQTAQMCCSKCSPGQHAKVFCTKTSDTVCDSCEDSTYTQLWNWVPECLSCGSRCSSDQVETQACTREQNRICTCRPGWYCALSKQEGCRLCAPLRKCRPGFGVARPGTETSDVVCKPCAPGTFSNTTSSTDICRPHQICNVVAIPGNASMDAVCTSTSPTRSMAPGAVHLPQPVSTRSQHTQPTPEPSTAPSTSFLLPMGPSPPAEGSTGDPRGPTIKPCPPCKCPAPNLLGGPSVFIFPPKIKDVLMISLSPIVTCVVVDVSEDDPDVQISWFVNNVEVHTAQTQTHREDYNSTLRVVSALPIQHQDWMSGKEFKCKVNNKDLPAPIERTISKPKGSVRAPRVYVLPPPEEEMTKKQVTLTCMVTDFMPEDIYVEWTNNGKTELNYKNTEPVLVSDGSYTMYSKLRVEKKNWVERNSYSCSVVHEGLHNHHTTKSFSRTPGKLVPRGSHHHHHH
notes: Fc heterodimer (knobs-in-holes, murine IgG2A); also called type 4 design compound
[5]
  binding result: binds
Myostatin [6]
  IC50, neutralisation of 1 ng/mL myostatin (pSmad2/3 luciferase reporter, HEK293 cells) [cont. C]: 1610 pM
[7]
  IC50, neutralisation of 1 ng/mL GDF11 (pSmad2/3 luciferase reporter, HEK293 cells) [cont. C]: 4490 pM
Activin A [8]
  IC50, neutralisation of 1 ng/mL activin A (pSmad2/3 luciferase reporter, HEK293 cells) [cont. C]: 525 pM

B3: native full-length follistatin315 (FST315) (other)
chain: GNCWLRQAKNGRCQVLYKTELSKEECCSTGRLSTSWTEEDVNDNTLFKWMIFNGGAPNCIPCKETCENVDCGPGKKCRMNKKNKPRCVCAPDCSNITWKGPVCGLDGKTYRNECALLKARCKEQPELEVQYQGRCKKTCRDVFCPGSSTCVVDQTNNAYCVTCNRICPEPASSEQYLCGNDGVTYSSACHLRKATCLLGRSIGLAYEGKCIKAKSCEDIQCTGGKKCLWDFKVGRGRCSLCDELCPDSKSDEPVCASDNATYASECAMKEAACSSGVLLEVKHSGSCNSISEDTEEEEEDEDQDYSFPISSILEW
Activin A [9]
  IC50, neutralisation of 1 ng/mL activin A (pSmad2/3 luciferase reporter, HEK293 cells): 53 pM
Myostatin [10]
  IC50, neutralisation of 1 ng/mL myostatin (pSmad2/3 luciferase reporter, HEK293 cells): 210 pM
[11]
  IC50, neutralisation of 1 ng/mL GDF11 (pSmad2/3 luciferase reporter, HEK293 cells): 119 pM

B4: VGFR(½)-mFc-FSD1 (Fc fusion)
chain: SDTGRPFVEMYSEIPEIIHMTEGRELVIPCRVTSPNITVTLKKFPLDTLIPDGKRIIWDSRKGFIISNATYKEIGLLTCEATVNGHLYKTNYLTHRQTNTIIDVVLSPSHGIELSVGEKLVLNCTARTELNVGIDFNWEYPSSKHQHKKLVNRDLKTQSGSEMKKFLSTLTIDGVTRSDQGLYTCAASSGLMTKKNSTFVRVHEKPRGPTIKPCPPCKCPAPNLLGGPSVFIFPPKIKDVLMISLSPIVTCVVVDVSEDDPDVQISWFVNNVEVHTAQTQTHREDYNSTLRVVSALPIQHQDWMSGKEFKCKVNNKDLPAPIERTISKPKGSVRAPQVYVLPPPEEEMTKKQVTLTCMVTDFMPEDIYVEWTNNGKTELNYKNTEPVLDSDGSYFMYSKLRVEKKNWVERNSYSCSVVHEGLHNHHTTKSFSRTPGKETCENVDCGPGKKCRMNKKNKPRCVCAPDCSNITWKGPVCGLDGKTYRNECALLKARCKEQPELEVQYQGRCK
notes: expressed in CHO cells; also called VGFR(1/2)-mFc-FSD1; type 2 design compound
[12]
  IC50, neutralisation of 1 ng/mL GDF11 (pSmad2/3 luciferase reporter, HEK293 cells) [cont. C]: 21 nM
Myostatin [13]
  IC50, neutralisation of 1 ng/mL myostatin (pSmad2/3 luciferase reporter, HEK293 cells) [cont. B]: 37 nM
Activin A [14]
  IC50, neutralisation of 1 ng/mL activin A (pSmad2/3 luciferase reporter, HEK293 cells): 18 nM
[4]
  binding result: binds

B5: TNFR2-mFc-FSD1 (Fc fusion)
chain: LPAQVAFTPYAPEPGSTCRLREYYDQTAQMCCSKCSPGQHAKVFCTKTSDTVCDSCEDSTYTQLWNWVPECLSCGSRCSSDQVETQACTREQNRICTCRPGWYCALSKQEGCRLCAPLRKCRPGFGVARPGTETSDVVCKPCAPGTFSNTTSSTDICRPHQICNVVAIPGNASMDAVCTSTSPTRSMAPGAVHLPQPVSTRSQHTQPTPEPSTAPSTSFLLPMGPSPPAEGSTGDPRGPTIKPCPPCKCPAPNLLGGPSVFIFPPKIKDVLMISLSPIVTCVVVDVSEDDPDVQISWFVNNVEVHTAQTQTHREDYNSTLRVVSALPIQHQDWMSGKEFKCKVNNKDLPAPIERTISKPKGSVRAPQVYVLPPPEEEMTKKQVTLTCMVTDFMPEDIYVEWTNNGKTELNYKNTEPVLDSDGSYFMYSKLRVEKKNWVERNSYSCSVVHEGLHNHHTTKSFSRTPGKETCENVDCGPGKKCRMNKKNKPRCVCAPDCSNITWKGPVCGLDGKTYRNECALLKARCKEQPELEVQYQGRCK
notes: expressed in CHO cells; also called type 2 design compound
[5]
  binding result: binds
